The values that follow are results of earlier work, collected in PMC7617445.

The target in the series is IL-18 (Homo sapiens) (UniProt Q14116).
IL-18 (Homo sapiens), sequence (Q14116 37-193): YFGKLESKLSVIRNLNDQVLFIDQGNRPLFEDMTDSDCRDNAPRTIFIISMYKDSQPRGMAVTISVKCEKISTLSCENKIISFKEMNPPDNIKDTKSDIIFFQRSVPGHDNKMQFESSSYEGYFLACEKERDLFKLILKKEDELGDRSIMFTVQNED

IL-18BP, sequence (O95998 31-194): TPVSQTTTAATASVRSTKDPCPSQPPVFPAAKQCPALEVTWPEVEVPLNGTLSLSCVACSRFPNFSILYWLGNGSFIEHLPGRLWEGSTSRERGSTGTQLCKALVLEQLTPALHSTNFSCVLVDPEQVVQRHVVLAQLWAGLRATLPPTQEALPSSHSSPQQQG

With IL-18BP (from UniProt O95998), the Kd was 100 pM.

The Kd is a measure of binding affinity in units of concentration.
